In paper PMC6718625, “CryoEM structures of Arabidopsis DDR complexes involved in RNA-directed DNA methylation” (Nature Communications, 2019):

B4: 6xHis-RDM1 (natural protein, Arabidopsis)
chain: SSMTMELRPSGDSGSSDVDAEISDGFSPLDTSHRDVADEGSLLRRAEMYQDYMKQVPIPTNRGSLIPFTSWVGLSISMKQLYGQPLHYLTNVLLQRWDQSRFGTDSEEQRLDSIIHPTKAEATIWLVEEIHRLTPSHLHMALLWRSDPMYHSFIDPIFPEK
notes: RDM1, Arabidopsis; also called His tag-RDM1; source: E. coli Rosetta2 (DE3), pCDFDuet-1, co-expressed with DMS3; purified within the DR or DDR′ complex, or in lysate (pulldown); not shown: 6xHis, N-terminal, kept

Columns and labels:
[1] = target: the molecule itself; test: SEC; His tag affinity-purified DMS3 WT or G339E on analytical Superdex 200 10/300 GL, 20 mM HEPES-KOH pH 7.5, 150 mM NaCl
[2] = target: the molecule itself; test: cryo-EM structure; single-particle cryoEM of the purified DR complex, 3.6 Å
6xHis-RDM1 = target: B4; test: as above; conditions: both partners purified
[3] = target: T1, DRD1 peptide 7 with C-terminal Strep II tag (Arabidopsis, UniProt Q9SIW2 45-99); test: cryo-EM structure; single-particle cryoEM of the purified DDR′ complex (DRD1 peptide 7-DMS3-RDM1), 3.5 Å; conditions: both partners purified
T1 construct: DRD1, Arabidopsis, region called peptide 7 in the N-terminal domain; source: E. coli Rosetta2 (DE3), pET21b, co-expressed with RDM1 and DMS3, purified as DDR′ complex (Strep Trap HP, Superdex 200); not shown: Strep II, C-terminal, kept
T1 sequence: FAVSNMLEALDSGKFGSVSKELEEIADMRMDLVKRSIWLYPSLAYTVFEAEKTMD

B1: His-DMS3 WT (natural protein, Arabidopsis, UniProt Q94A79 1-420, looked up)
chain: MYPTGQQISFQTTPLNVQDPTRMMNLDQSSPVARNETQNGGGIAHAEFAMFNSKRLESDLEAMGNKIKQHEDNLKFLKSQKNKMDEAIVDLQVHMSKLNSSPTPRSENSDNSLQGEDINAQILRHENSAAGVLSLVETLHGAQASQLMLTKGVVGVVAKLGKVNDENLSQILSNYLGTRSMLAVVCRNYESVTALEAYDNHGNIDINAGLHCLGSSIGREIGDSFDAICLENLRPYVGQHIADDLQRRLDLLKPKLPNGECPPGFLGFAVNMIQIDPAYLLCVTSYGYGLRETLFYNLFSRLQVYKTRADMISALPCISDGAVSLDGGIIRKTGIFNLGNRDEVNVRFAKPTASRTMDNYSEAEKKMKELKWKKEKTLEDIKREQVLREHAVFNFGKKKEEFVRCLAQSSCTNQPMNTPR
notes: DMS3, Arabidopsis; also called recombinant DMS3 WT; source: E. coli Rosetta2 (DE3), pCDF-His-DMS3, purified (Ni-NTA agarose)
binding result [1]: binds

B2: DMS3 (recombinant, co-expressed with His-RDM1) (natural protein, Arabidopsis)
chain: YPTGQQISFQTTPLNVQDPTRMMNLDQSSPVARNETQNGGGIAHAEFAMFNSKRLESDLEAMGNKIKQHEDNLKFLKSQKNKMDEAIVDLQVHMSKLNSSPTPRSENSDNSLQGEDINAQILRHENSAAGVLSLVETLHGAQASQLMLTKGVVGVVAKLGKVNDENLSQILSNYLGTRSMLAVVCRNYESVTALEAYDNHGNIDINAGLHCLGSSIGREIGDSFDAICLENLRPYVGQHIADDLQRRLDLLKPKLPNGECPPGFLGFAVNMIQIDPAYLLCVTSYGYGLRETLFYNLFSRLQVYKTRADMISALPCISDGAVSLDGGIIRKTGIFNLGNRDEVNVRFAKPTASRTMDNYSEAEKKMKELKWKKEKTLEDIKREQVLREHAVFNFGKKKEEFVRCLAQSSCTNQPMNTPR
notes: DMS3, Arabidopsis; residues 1-42 and 410-420 are said not to be visible in the maps; DMS3h, DMS3hc1 and DMS3hc2 are conformational states of the same chain in the structures; also called DMS3 WT; DMS3h; source: E. coli Rosetta2 (DE3), pCDFDuet-1, co-expressed with His-RDM1; purified within the DR or DDR′ complex, or in lysate (pulldown)
stoichiometry N [2]: 2 | stoichiometry N (6xHis-RDM1): 2 DMS3 per RDM1 (4:2)

B3: DR complex (DMS3-RDM1) (complex, Arabidopsis)
chain 1: SSMTMELRPSGDSGSSDVDAEISDGFSPLDTSHRDVADEGSLLRRAEMYQDYMKQVPIPTNRGSLIPFTSWVGLSISMKQLYGQPLHYLTNVLLQRWDQSRFGTDSEEQRLDSIIHPTKAEATIWLVEEIHRLTPSHLHMALLWRSDPMYHSFIDPIFPEK
chain 2: YPTGQQISFQTTPLNVQDPTRMMNLDQSSPVARNETQNGGGIAHAEFAMFNSKRLESDLEAMGNKIKQHEDNLKFLKSQKNKMDEAIVDLQVHMSKLNSSPTPRSENSDNSLQGEDINAQILRHENSAAGVLSLVETLHGAQASQLMLTKGVVGVVAKLGKVNDENLSQILSNYLGTRSMLAVVCRNYESVTALEAYDNHGNIDINAGLHCLGSSIGREIGDSFDAICLENLRPYVGQHIADDLQRRLDLLKPKLPNGECPPGFLGFAVNMIQIDPAYLLCVTSYGYGLRETLFYNLFSRLQVYKTRADMISALPCISDGAVSLDGGIIRKTGIFNLGNRDEVNVRFAKPTASRTMDNYSEAEKKMKELKWKKEKTLEDIKREQVLREHAVFNFGKKKEEFVRCLAQSSCTNQPMNTPR
notes: RDM1, Arabidopsis; DMS3, Arabidopsis; residues 1-42 and 410-420 are said not to be visible in the maps; Stoichiometry 4 DMS3 : 2 RDM1 by cryo-EM; also called DMS3-RDM1 complex; source: E. coli Rosetta2 (DE3), co-expressed from pCDFDuet-1, purified (His Trap HP or, with DRD1 peptide 7, Strep Trap HP; Superdex 200); not shown: 6xHis, N-terminal, kept; copies: 2 + 4
stoichiometry N [3]: 1 peptide per DR complex

B4
stoichiometry N [2]: 2
